Tested on: olfactory receptor (OR X)
Assay: Luciferase reporter assay using olfactory receptor-expressing HEK293T cells, effect of concurrent addition of LCN15
Type: cell-based, human
Conditions: mixed solution of isovaleric acid (30 μM) and LCN15 (1 μM) compared to isovaleric acid (30 μM) alone; 3 hours, 37° C.
Description: A human olfactory receptor gene was cloned by a PCR method using a human olfactory receptor gene purchased from TrueClone cDNA Clone Collection (OriGene) as a template base on sequence information registered in GenBank. Each gene amplified by the PCR method was subcloned into downstream of a Rho tag sequence of a Rho-pME18S vector (K. Kajiya et al., Journal of Neuroscience, 15 Aug. 2001, 21 (16) 6018-6025, which is incorporated herein by reference in its entirety) using EcoRI and XhoI sites to obtain an expression vector for the human olfactory receptor.
HEK293T cells that expressed the olfactory receptor (OR X) was prepared by the following procedure. […]
The olfactory receptor (OR X) expressed on HEK293T cells is conjugated with Golf to activate adenylate cyclase, thereby increases an amount of intracellular cAMP. In this Example, the measurement for response of the olfactory receptor to a test substance employed luciferase reporter gene assay in which increase of the amount of intracellular cAMP was monitored as increase of a luminescence value derived from firefly luciferase. […] In conjugation with this, a luminescence value derived from Renilla luciferase was used as an internal standard for correcting errors of a gene transfer efficiency and a cell number in each well. […]

B1: lipocalin 15 (protein, listed as Homo sapiens)
chain: MEVLLQPDFNAEKFSGLWYVVSMASDCRVFLGKKDHLSMSTRAIRPTEEGGLHVHMEFPGADGCNQVDAEYLKVGSEGHFRVPALGYLDVRIVDTDYSSFAVLYIYKELEGALSTMVQLYSRTQDVSPQALKSFQDFYPTLGLPKDMMVMLPQSDACNPESKEAP
notes: secreted protein produced in the olfactory mucosa and secreted into the olfactory mucus; recombinant hLCN15 prepared in E. coli
How did the “response intensity of the olfactory receptor (Luc/hRLuc value)” value turn out when B1 was run?
Its value is “more enhanced”.
